According to patent EP4810516A1 (Shanghai Shengdi Pharmaceutical Co., Ltd., dated 2026):
Blank lines part the entries; values can stand above or below the binder they belong to.

What was measured:
[1] = target: T1, cynomolgus monkey GPC3 (Acrobiosystems, Cat#GP3-C5225) (cynomolgus monkey, UniProt A0A2K5VK50 24-558); test: SPR (Biacore 8K), antibody captured on Protein A chip, antigen as analyte
T1 construct: Bought protein

[2] = target: T2, human GPC3 (Sino Biological, Cat#10088-H08H) (human, UniProt P51654 25-559); test: as above
T2 construct: Bought protein; also called human GPC3 protein

[3] = target: T3, human GPC3 naturally expressed on tumor cells (human, UniProt P51654 25-580); test: cell-based or functional assay
[4] = target: T4, recombinant monkey (Macaca mulatta) γ9δ2 TCR protein (monkey (Macaca mulatta); called …); test: SPR (Biacore 8K), antibody captured on Protein A chip, antigen as analyte
T4 construct: also called Monkey γ9δ2 TCR; Cynomolgus monkey γ9δ2
T4 V domain 1: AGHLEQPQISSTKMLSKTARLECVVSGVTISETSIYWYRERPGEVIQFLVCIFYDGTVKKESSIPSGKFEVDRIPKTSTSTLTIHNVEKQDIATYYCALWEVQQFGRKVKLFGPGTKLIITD
T4 V domain 2: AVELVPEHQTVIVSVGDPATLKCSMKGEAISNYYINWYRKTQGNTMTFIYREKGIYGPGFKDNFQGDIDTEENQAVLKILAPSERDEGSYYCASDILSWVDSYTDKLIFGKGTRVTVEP

[5] = target: T3, human GPC3 naturally expressed on tumor …; test: FACS on HepG2 cells (natural human GPC3), anti-human Fc secondary
[6] = target: T3, human GPC3 naturally expressed on tumor …; test: cell-based or functional assay; remark: listed apart in the source
[7] = target: T5, recombinant human γ8δ2 TCR protein (human); test: ELISA, plate coated with 1 µg/mL recombinant TCR protein, antibody at 30 nM
T5 chain 1: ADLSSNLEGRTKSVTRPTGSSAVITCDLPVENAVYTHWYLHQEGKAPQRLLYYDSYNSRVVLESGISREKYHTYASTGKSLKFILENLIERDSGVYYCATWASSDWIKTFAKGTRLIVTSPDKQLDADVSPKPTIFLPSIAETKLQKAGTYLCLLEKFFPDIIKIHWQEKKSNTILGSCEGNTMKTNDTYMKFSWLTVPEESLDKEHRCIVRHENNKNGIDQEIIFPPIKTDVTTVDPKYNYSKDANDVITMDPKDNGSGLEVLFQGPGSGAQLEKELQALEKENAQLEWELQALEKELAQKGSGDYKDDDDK
T5 chain 2: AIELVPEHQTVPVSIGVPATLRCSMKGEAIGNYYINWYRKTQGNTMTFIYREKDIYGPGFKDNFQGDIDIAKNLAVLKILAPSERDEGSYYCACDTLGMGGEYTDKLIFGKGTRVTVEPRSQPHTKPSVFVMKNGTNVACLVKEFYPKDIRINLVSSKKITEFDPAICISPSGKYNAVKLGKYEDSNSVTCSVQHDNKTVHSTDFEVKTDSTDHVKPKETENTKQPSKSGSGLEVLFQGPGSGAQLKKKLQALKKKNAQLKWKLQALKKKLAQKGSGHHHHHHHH

[8] = target: T5, recombinant human γ8δ2 TCR protein; test: ELISA, plate coated with 1 µg/mL recombinant TCR protein

T2 sequence (P51654 25-559 limits assumed): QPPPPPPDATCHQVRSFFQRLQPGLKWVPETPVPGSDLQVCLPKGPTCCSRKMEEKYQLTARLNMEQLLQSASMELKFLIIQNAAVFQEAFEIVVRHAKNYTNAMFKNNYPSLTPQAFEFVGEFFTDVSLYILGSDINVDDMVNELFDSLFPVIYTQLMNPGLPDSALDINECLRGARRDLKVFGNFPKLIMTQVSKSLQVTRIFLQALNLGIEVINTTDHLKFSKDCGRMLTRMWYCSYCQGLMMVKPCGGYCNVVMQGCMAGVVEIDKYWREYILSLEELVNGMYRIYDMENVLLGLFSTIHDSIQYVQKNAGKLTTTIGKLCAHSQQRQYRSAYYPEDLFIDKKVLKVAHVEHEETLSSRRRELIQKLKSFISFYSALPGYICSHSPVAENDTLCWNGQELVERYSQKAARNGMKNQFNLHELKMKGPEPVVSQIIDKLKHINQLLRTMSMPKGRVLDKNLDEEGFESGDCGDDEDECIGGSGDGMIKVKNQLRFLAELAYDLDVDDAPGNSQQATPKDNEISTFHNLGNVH
T3 sequence (P51654 25-580, form in doubt): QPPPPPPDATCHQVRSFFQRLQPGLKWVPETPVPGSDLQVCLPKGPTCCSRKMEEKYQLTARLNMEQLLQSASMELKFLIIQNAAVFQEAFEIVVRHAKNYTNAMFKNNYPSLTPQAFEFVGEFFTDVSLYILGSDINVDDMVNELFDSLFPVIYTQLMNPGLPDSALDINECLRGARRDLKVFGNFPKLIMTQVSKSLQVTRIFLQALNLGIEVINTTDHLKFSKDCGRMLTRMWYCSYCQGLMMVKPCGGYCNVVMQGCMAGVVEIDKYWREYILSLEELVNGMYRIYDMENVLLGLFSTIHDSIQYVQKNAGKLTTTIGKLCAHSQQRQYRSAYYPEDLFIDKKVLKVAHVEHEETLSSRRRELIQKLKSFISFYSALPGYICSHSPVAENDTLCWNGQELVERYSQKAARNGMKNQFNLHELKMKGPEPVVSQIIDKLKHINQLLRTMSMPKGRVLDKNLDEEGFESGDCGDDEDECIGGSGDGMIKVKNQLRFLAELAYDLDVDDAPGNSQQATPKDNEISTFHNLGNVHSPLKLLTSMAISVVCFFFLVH

B1: SDP01696 (bispecific antibody, human IgG1, kappa)
heavy 1: not shown
light 1: DIQMTQSPSSVSASVGDRVTITCKASQNVGTNVAWYQQKPGKAPKALIYSASYRYSGVPSRFSGSGSGTDFTLTISSLQPEDFATYYCQQYNSFPLTFGQGTKLEIKGGGGSGIPPKIECLPIDISIDEGKVLTVASAFTGEPTPEVTWSTGGRKIHSQEQGRFHIENTDDSTTLTIKDVQKQDGGLYTLTLRNEFGSDSATVNIHIRSI
heavy 2: QVQLVQSGAEVKKPGASVKVSCKASGYTFTDYEMHWVRQAPGQGLEWMGALDPKTGDTAYSQKFKGRVTLTADKSTSTAYMELSSLTSEDTAVYYCTRFYSYTYWGQGTLVTVSSASTKGPSVFPLAPSSKSTSGGTAALGCLVKDYFPEPVTVSWNSGALTSGVHTFPAVLQSSGLYSLSSVVTVPSSSLGTQTYICNVNHKPSNTKVDKKVEPKSCDKTHTCPPCPAPEFEGGPSVFLFPPKPKDTLMISRTPEVTCVVVDVSHEDPEVKFNWYVDGVEVHNAKTKPREEQYNSTYRVVSVLTVLHQDWLNGKEYKCKVSNKALPAPIEKTISKAKGQPREPQVCTLPPSREEMTKNQVSLSCAVKGFYPSDIAVEWESNGQPENNYKTTPPVLDSDGSFFLVSKLTVDKSRWQQGNVFSCSVMHEALHNHYTQKSLSLSPGK
light 2: DVVMTQSPLSLPVTPGEPASISCRSSQSLVHSNRNTYLHWYLQKPGQSPQLLIYKVSNRFSGVPDRFSGSGSGTDFTLKISRVEAEDVGVYYCSQNTHVPPTFGQGTKLEIKRTVAAPSVFIFPPSDEQLKSGTASVVCLLNNFYPREAKVQWKVDNALQSGNSQESVTEQDSKDSTYSLSSTLTLSKADYEKHKVYACEVTHQGLSSPVTKSFNRGEC
notes: also called anti-GPC3/γδTCR bispecific antibody (1+1, with SDP01315H2L2)
Kd [1]: 1.47 nM
Kd [2]: 1.74 nM
γδT killing of HepG2, EC50 (LDH assay) [3]: 0.06 nM
γδT killing of HepG2, Emax (LDH assay) [3]: 70.1%
γδT killing of Huh-7, EC50 (LDH assay) [3]: 0.21 nM
γδT killing of Huh-7, Emax (LDH assay) [3]: 50.9%
γδT killing of MKN-45, EC50 (LDH assay) [3]: 0.024 nM
γδT killing of MKN-45, Emax (LDH assay) [3]: 11%
Kd [4]: 42.4 nM
EC50 [5]: 5.17 nM

B4: SDP01315 (antibody, V domains shown)
VH: EVKLVESGGGLVKPGGSLKLSCAASGFTFSSYAMSWVRQTPEKRLEWVASISSGGSTYYPDSVKGRFTISRDNARNILYLQMSSLRSEDTAMYYCARDGYPPFDYWGQGTTLTVSS
VL: DIVMTQSQKFMSTSVGDRVSVTCKASQNVGTNVAWYQQKPGQSPKALIYSASYRYSGVPDRFTGSGSGTDFTLTISNVQSEDLAEYFCQQYNSFPLTFGSGTKLEIK
notes: Tested as a chimeric antibody (Protein A purified, detected with anti-human Fc); also called clone No. bph-003; murine-derived anti-γδTCR antibody
absorbance at 450 nm [7]: 0.192 absorbance at 450 nm
binding result [8]: no binding (tested: 30 nM)

B5: SDP01346 (VHH, not shown: small tags and cut ends)
VHH: QVQLVESGGGLVQAGGSLRLSCTVSGSTFSDFAMGWLRQAPGKEREFVAAISWTGGRTYYADSVKGRFAISRDNGENTVYLQMNSLKSEDTAIYYCAASRDCSGPGCRVHEYDYWGQGTQVTVSS
notes: also called clone No. ac-025; anti-γδTCR single-domain antibody
absorbance at 450 nm [7]: 0.108 absorbance at 450 nm

Now from value to binder, other results behind:

Kd [1]: 1.47 nM
Kd [2]: 1.65 nM
Kd [4]: 68.8 nM
EC50 [5]: 4.85 nM
B2: SDP01716 (bispecific antibody, human IgG1, kappa)
heavy 1: not shown
heavy 2: QVQLVQSGAEVKKPGASVKVSCKASGYTFTDYEMHWVRQAPGQGLEWMGALDPKTGDTAYSQKFKGRVTLTADKSTSTAYMELSSLTSEDTAVYYCTRFYSYTYWGQGTLVTVSSASTKGPSVFPLAPSSKSTSGGTAALGCLVKDYFPEPVTVSWNSGALTSGVHTFPAVLQSSGLYSLSSVVTVPSSSLGTQTYICNVNHKPSNTKVDKKVEPKSCDKTHTCPPCPAPEFEGGPSVFLFPPKPKDTLMISRTPEVTCVVVDVSHEDPEVKFNWYVDGVEVHNAKTKPREEQYNSTYRVVSVLTVLHQDWLNGKEYKCKVSNKALPAPIEKTISKAKGQPREPQVCTLPPSREEMTKNQVSLSCAVKGFYPSDIAVEWESNGQPENNYKTTPPVLDSDGSFFLVSKLTVD
light: B1 light 2
notes: Knob-into-hole IgG1 Fc with L234F/L235E; also called anti-GPC3/γδTCR bispecific antibody (1+1, with SDP01346H4)
Killing activity against HepG2, EC50, γδ T cells of donor #SC12004 (LDH assay) [6]: 0.038 nM
Killing activity against HepG2, EC50, γδ T cells of donor #SC12392 (LDH assay) [6]: 0.033 nM
Killing activity against HepG2, EC50, γδ T cells of donor #XC11053 (LDH assay) [6]: 0.017 nM
Killing activity against HepG2, EC50, γδ T cells of donor #XC11061 (LDH assay) [6]: 0.054 nM
γδT killing of HepG2, EC50 (LDH assay) [3]: 0.01 nM
γδT killing of HepG2, Emax (LDH assay) [3]: 70.3%
γδT killing of Huh-7, EC50 (LDH assay) [3]: 0.06 nM
γδT killing of Huh-7, Emax (LDH assay) [3]: 93.8%
γδT killing of MKN-45, EC50 (LDH assay) [3]: 0.004 nM
γδT killing of MKN-45, Emax (LDH assay) [3]: 10.3%

Kd [1]: 1.63 nM
Kd [2]: 1.84 nM
Kd [4]: 40.6 nM
EC50 [5]: 2.47 nM
B3: SDP01704 (bispecific antibody, human IgG1, kappa)
heavy 1: not shown
light 1: B1 light 1
heavy 2: QVQLVQSGAEVKKPGASVKVSCKASGYTFTDYEMHWVRQAPGQGLEWMGALDPKTGDTAYSQKFKGRVTLTADKSTSTAYMELSSLTSEDTAVYYCTRFYSYTYWGQGTLVTVSSASTKGPSVFPLAPSSKSTSGGTAALGCLVKDYFPEPVTVSWNSGALTSGVHTFPAVLQSSGLYSLSSVVTVPSSSLGTQTYICNVNHKPSNTKVDKKVEPKSCDGGGGSGGGGSQVQLVQSGAEVKKPGASVKVSCKASGYTFTDYEMHWVRQAPGQGLEWMGALDPKTGDTAYSQKFKGRVTLTADKSTSTAYMELSSLTSEDTAVYYCTRFYSYTYWGQGTLVTVSSASTKGPSVFPLAPSSKSTSGGTAALGCLVKDYFPEPVTVSWNSGALTSGVHTFPAVLQSSGLYSLSSVVTVPSSSLGTQTYICNVNHKPSNTKVDKKVEPKSCDKTHTCPPCPAPEFEGGPSVFLFPPKPKDTLMISRTPEVTCVVVDVSHEDPEVKFNWYVDGVEVHNAKTKPREEQYNSTYRVVSVLTVLHQDWLNGKEYKCKVSNKALPAPIEKTISKAKGQPREPQVCTLPPSREEMTKNQVSLSCAVKGFYPSDIAVEWESNGQPENNYKTTPPVLDSDGSFFLVSKLTVDKSRWQQGNVFSCSVMHEALHNHYTQKSLSLSPGK
light 2: B1 light 2
notes: Bivalent for GPC3; also called anti-GPC3/γδTCR bispecific antibody (2+1, with SDP01315H2L2)
γδT killing of HepG2, EC50 (LDH assay) [3]: 0.03 nM
γδT killing of HepG2, Emax (LDH assay) [3]: 72%
γδT killing of Huh-7, EC50 (LDH assay) [3]: 0.11 nM
γδT killing of Huh-7, Emax (LDH assay) [3]: 61.7%
γδT killing of MKN-45, EC50 (LDH assay) [3]: 0.016 nM
γδT killing of MKN-45, Emax (LDH assay) [3]: 6.6%
